According to the Human Domainome abundance scans (Beltran et al. 2025):
± gives the uncertainty stated by the source.

B1: Proto-oncogene vav, residues 782 to 842; numbered along this chain, P15498 (parent)
chain: KYFGTAKARYDFCARDRSELSLKEGDIIKILNKKGQQGWWRGEIYGRVGWFPANYVEEDYS

Variants of: B1
Assay: abundance fitness (aPCA) (normalised: wild type 0, dead -1); higher = more abundant; growth selection in yeast, the domain comes from the species named
Conditions: Homo sapiens

| Variant | abundance fitness |
| --- | --- |
| KYFGTAKARYDFCARDRSTLSLKEGDIIKILNKKGQQGWWRGEIYGRVGWFPANYVEEDYS | -0.838 ± 0.19 |
| KYFGTAKARYDFCARDRSWLSLKEGDIIKILNKKGQQGWWRGEIYGRVGWFPANYVEEDYS | -0.445 ± 0.15 |
| KYFGTAKARYDFCARDRSVLSLKEGDIIKILNKKGQQGWWRGEIYGRVGWFPANYVEEDYS | -0.922 ± 0.2 |
| KYFGTAKARYDFCARDRSSLSLKEGDIIKILNKKGQQGWWRGEIYGRVGWFPANYVEEDYS | -0.417 ± 0.094 |
| KYFGTAKARYDFCARDRSYLSLKEGDIIKILNKKGQQGWWRGEIYGRVGWFPANYVEEDYS | -0.763 ± 0.38 |
| KYFGTAKARYDFCARDRSEISLKEGDIIKILNKKGQQGWWRGEIYGRVGWFPANYVEEDYS | -0.342 ± 0.21 |
| KYFGTAKARYDFCARDRSETSLKEGDIIKILNKKGQQGWWRGEIYGRVGWFPANYVEEDYS | -0.642 ± 0.19 |
| KYFGTAKARYDFCARDRSESSLKEGDIIKILNKKGQQGWWRGEIYGRVGWFPANYVEEDYS | -0.825 ± 0.13 |
| KYFGTAKARYDFCARDRSEFSLKEGDIIKILNKKGQQGWWRGEIYGRVGWFPANYVEEDYS | -0.937 ± 0.31 |
| KYFGTAKARYDFCARDRSEQSLKEGDIIKILNKKGQQGWWRGEIYGRVGWFPANYVEEDYS | -1.05 ± 0.39 |
| KYFGTAKARYDFCARDRSEYSLKEGDIIKILNKKGQQGWWRGEIYGRVGWFPANYVEEDYS | -0.64 ± 0.25 |
| KYFGTAKARYDFCARDRSERSLKEGDIIKILNKKGQQGWWRGEIYGRVGWFPANYVEEDYS | -0.883 ± 0.15 |
| KYFGTAKARYDFCARDRSENSLKEGDIIKILNKKGQQGWWRGEIYGRVGWFPANYVEEDYS | -0.691 ± 0.35 |
| KYFGTAKARYDFCARDRSECSLKEGDIIKILNKKGQQGWWRGEIYGRVGWFPANYVEEDYS | -0.966 ± 0.45 |
| KYFGTAKARYDFCARDRSEASLKEGDIIKILNKKGQQGWWRGEIYGRVGWFPANYVEEDYS | -0.768 ± 0.19 |
| KYFGTAKARYDFCARDRSEWSLKEGDIIKILNKKGQQGWWRGEIYGRVGWFPANYVEEDYS | -0.919 ± 0.24 |
| KYFGTAKARYDFCARDRSEMSLKEGDIIKILNKKGQQGWWRGEIYGRVGWFPANYVEEDYS | -0.756 ± 0.19 |
| KYFGTAKARYDFCARDRSEVSLKEGDIIKILNKKGQQGWWRGEIYGRVGWFPANYVEEDYS | -0.577 ± 0.1 |
| KYFGTAKARYDFCARDRSEKSLKEGDIIKILNKKGQQGWWRGEIYGRVGWFPANYVEEDYS | -0.673 ± 0.24 |
| KYFGTAKARYDFCARDRSEESLKEGDIIKILNKKGQQGWWRGEIYGRVGWFPANYVEEDYS | -0.852 ± 0.46 |
| KYFGTAKARYDFCARDRSEGSLKEGDIIKILNKKGQQGWWRGEIYGRVGWFPANYVEEDYS | -0.927 ± 0.18 |
| KYFGTAKARYDFCARDRSELSLKHGDIIKILNKKGQQGWWRGEIYGRVGWFPANYVEEDYS | -0.13 ± 0.098 |

| Variant | abundance fitness |
| --- | --- |
| KYFGTAKARYDFCARDRSELSLKLGDIIKILNKKGQQGWWRGEIYGRVGWFPANYVEEDYS | -0.809 ± 0.13 |
| KYFGTAKARYDFCARDRSELSLKKGDIIKILNKKGQQGWWRGEIYGRVGWFPANYVEEDYS | -0.01 ± 0.11 |
| KYFGTAKARYDFCARDRSELSLKIGDIIKILNKKGQQGWWRGEIYGRVGWFPANYVEEDYS | -0.124 ± 0.066 |
| KYFGTAKARYDFCARDRSELSLKGGDIIKILNKKGQQGWWRGEIYGRVGWFPANYVEEDYS | -0.262 ± 0.053 |
| KYFGTAKARYDFCARDRSELSLKPGDIIKILNKKGQQGWWRGEIYGRVGWFPANYVEEDYS | -0.111 ± 0.096 |
| KYFGTAKARYDFCARDRSELSLKMGDIIKILNKKGQQGWWRGEIYGRVGWFPANYVEEDYS | -0.009 ± 0.094 |
| KYFGTAKARYDFCARDRSELSLKAGDIIKILNKKGQQGWWRGEIYGRVGWFPANYVEEDYS | 0.082 ± 0.062 |
| KYFGTAKARYDFCARDRSELSLKCGDIIKILNKKGQQGWWRGEIYGRVGWFPANYVEEDYS | -0.091 ± 0.051 |
| KYFGTAKARYDFCARDRSELSLKNGDIIKILNKKGQQGWWRGEIYGRVGWFPANYVEEDYS | -0.118 ± 0.082 |
| KYFGTAKARYDFCARDRSELSLKDGDIIKILNKKGQQGWWRGEIYGRVGWFPANYVEEDYS | -0.361 ± 0.076 |
| KYFGTAKARYDFCARDRSELSLKTGDIIKILNKKGQQGWWRGEIYGRVGWFPANYVEEDYS | -0.01 ± 0.077 |
| KYFGTAKARYDFCARDRSELSLKFGDIIKILNKKGQQGWWRGEIYGRVGWFPANYVEEDYS | -0.575 ± 0.077 |
| KYFGTAKARYDFCARDRSELSLKSGDIIKILNKKGQQGWWRGEIYGRVGWFPANYVEEDYS | -0.056 ± 0.046 |
| KYFGTAKARYDFCARDRSELSLKYGDIIKILNKKGQQGWWRGEIYGRVGWFPANYVEEDYS | -0.231 ± 0.062 |
| KYFGTAKARYDFCARDRSELSLKQGDIIKILNKKGQQGWWRGEIYGRVGWFPANYVEEDYS | -0.072 ± 0.13 |
| KYFGTAKARYDFCARDRSELSLKRGDIIKILNKKGQQGWWRGEIYGRVGWFPANYVEEDYS | 0.068 ± 0.051 |
| KYFGTAKARYDFCARDRSELSLKWGDIIKILNKKGQQGWWRGEIYGRVGWFPANYVEEDYS | -0.92 ± 0.25 |
| KYFGTAKARYDFCARDRSELSLKVGDIIKILNKKGQQGWWRGEIYGRVGWFPANYVEEDYS | 0.045 ± 0.049 |
| KYFGTAKARYDFCARDRSELELKEGDIIKILNKKGQQGWWRGEIYGRVGWFPANYVEEDYS | -0.049 ± 0.12 |
| KYFGTAKARYDFCARDRSELDLKEGDIIKILNKKGQQGWWRGEIYGRVGWFPANYVEEDYS | 0.153 ± 0.19 |
| KYFGTAKARYDFCARDRSELQLKEGDIIKILNKKGQQGWWRGEIYGRVGWFPANYVEEDYS | -0.594 ± 0.15 |
| KYFGTAKARYDFCARDRSELHLKEGDIIKILNKKGQQGWWRGEIYGRVGWFPANYVEEDYS | -0.243 ± 0.15 |

| Variant | abundance fitness |
| --- | --- |
| KYFGTAKARYDFCARDRSELILKEGDIIKILNKKGQQGWWRGEIYGRVGWFPANYVEEDYS | -0.378 ± 0.26 |
| KYFGTAKARYDFCARDRSELPLKEGDIIKILNKKGQQGWWRGEIYGRVGWFPANYVEEDYS | -0.36 ± 0.13 |
| KYFGTAKARYDFCARDRSELTLKEGDIIKILNKKGQQGWWRGEIYGRVGWFPANYVEEDYS | -0.265 ± 0.12 |
| KYFGTAKARYDFCARDRSELCLKEGDIIKILNKKGQQGWWRGEIYGRVGWFPANYVEEDYS | -0.445 ± 0.13 |
| KYFGTAKARYDFCARDRSELVLKEGDIIKILNKKGQQGWWRGEIYGRVGWFPANYVEEDYS | -0.895 ± 0.16 |
| KYFGTAKARYDFCARDRSELGLKEGDIIKILNKKGQQGWWRGEIYGRVGWFPANYVEEDYS | -0.34 ± 0.09 |
| KYFGTAKARYDFCARDRSELYLKEGDIIKILNKKGQQGWWRGEIYGRVGWFPANYVEEDYS | -0.513 ± 0.22 |
| KYFGTAKARYDFCARDRSELLLKEGDIIKILNKKGQQGWWRGEIYGRVGWFPANYVEEDYS | -0.653 ± 0.1 |
| KYFGTAKARYDFCARDRSELFLKEGDIIKILNKKGQQGWWRGEIYGRVGWFPANYVEEDYS | -0.607 ± 0.15 |
| KYFGTAKARYDFCARDRSELKLKEGDIIKILNKKGQQGWWRGEIYGRVGWFPANYVEEDYS | -0.627 ± 0.17 |
| KYFGTAKARYDFCARDRSELALKEGDIIKILNKKGQQGWWRGEIYGRVGWFPANYVEEDYS | -0.26 ± 0.077 |
| KYFGTAKARYDFCARDRSELNLKEGDIIKILNKKGQQGWWRGEIYGRVGWFPANYVEEDYS | -0.333 ± 0.16 |
| KYFGTAKARYDFCARDRSELRLKEGDIIKILNKKGQQGWWRGEIYGRVGWFPANYVEEDYS | -0.742 ± 0.13 |
| KYFGTAKARYDFCARDRSELSQKEGDIIKILNKKGQQGWWRGEIYGRVGWFPANYVEEDYS | -1.07 ± 0.41 |
| KYFGTAKARYDFCARDRSELSIKEGDIIKILNKKGQQGWWRGEIYGRVGWFPANYVEEDYS | 0.016 ± 0.11 |
| KYFGTAKARYDFCARDRSELSPKEGDIIKILNKKGQQGWWRGEIYGRVGWFPANYVEEDYS | -0.971 ± 0.27 |
| KYFGTAKARYDFCARDRSELSHKEGDIIKILNKKGQQGWWRGEIYGRVGWFPANYVEEDYS | -0.456 ± 0.2 |
| KYFGTAKARYDFCARDRSELSNKEGDIIKILNKKGQQGWWRGEIYGRVGWFPANYVEEDYS | -0.91 ± 0.35 |
| KYFGTAKARYDFCARDRSELSFKEGDIIKILNKKGQQGWWRGEIYGRVGWFPANYVEEDYS | 0.176 ± 0.1 |
| KYFGTAKARYDFCARDRSELSWKEGDIIKILNKKGQQGWWRGEIYGRVGWFPANYVEEDYS | -0.888 ± 0.24 |
| KYFGTAKARYDFCARDRSELSKKEGDIIKILNKKGQQGWWRGEIYGRVGWFPANYVEEDYS | -0.857 ± 0.26 |
| KYFGTAKARYDFCARDRSELSVKEGDIIKILNKKGQQGWWRGEIYGRVGWFPANYVEEDYS | -0.332 ± 0.12 |

| Variant | abundance fitness |
| --- | --- |
| KYFGTAKARYDFCARDRSELSCKEGDIIKILNKKGQQGWWRGEIYGRVGWFPANYVEEDYS | -0.405 ± 0.2 |
| KYFGTAKARYDFCARDRSELSAKEGDIIKILNKKGQQGWWRGEIYGRVGWFPANYVEEDYS | -0.494 ± 0.12 |
| KYFGTAKARYDFCARDRSELSMKEGDIIKILNKKGQQGWWRGEIYGRVGWFPANYVEEDYS | -0.13 ± 0.1 |
| KYFGTAKARYDFCARDRSELSRKEGDIIKILNKKGQQGWWRGEIYGRVGWFPANYVEEDYS | -0.791 ± 0.11 |
| KYFGTAKARYDFCARDRSELSSKEGDIIKILNKKGQQGWWRGEIYGRVGWFPANYVEEDYS | -0.852 ± 0.13 |
| KYFGTAKARYDFCARDRSELSLPEGDIIKILNKKGQQGWWRGEIYGRVGWFPANYVEEDYS | -0.907 ± 0.25 |
| KYFGTAKARYDFCARDRSELSLIEGDIIKILNKKGQQGWWRGEIYGRVGWFPANYVEEDYS | -0.524 ± 0.19 |
| KYFGTAKARYDFCARDRSELSLSEGDIIKILNKKGQQGWWRGEIYGRVGWFPANYVEEDYS | -0.168 ± 0.078 |
| KYFGTAKARYDFCARDRSELSLFEGDIIKILNKKGQQGWWRGEIYGRVGWFPANYVEEDYS | -0.585 ± 0.17 |
| KYFGTAKARYDFCARDRSELSLTEGDIIKILNKKGQQGWWRGEIYGRVGWFPANYVEEDYS | -0.237 ± 0.12 |
| KYFGTAKARYDFCARDRSELSLLEGDIIKILNKKGQQGWWRGEIYGRVGWFPANYVEEDYS | -0.585 ± 0.097 |
| KYFGTAKARYDFCARDRSELSLGEGDIIKILNKKGQQGWWRGEIYGRVGWFPANYVEEDYS | -0.815 ± 0.16 |
| KYFGTAKARYDFCARDRSELSLAEGDIIKILNKKGQQGWWRGEIYGRVGWFPANYVEEDYS | -0.222 ± 0.084 |
| KYFGTAKARYDFCARDRSELSLHEGDIIKILNKKGQQGWWRGEIYGRVGWFPANYVEEDYS | -0.142 ± 0.12 |
| KYFGTAKARYDFCARDRSELSLWEGDIIKILNKKGQQGWWRGEIYGRVGWFPANYVEEDYS | -0.816 ± 0.2 |
| KYFGTAKARYDFCARDRSELSLMEGDIIKILNKKGQQGWWRGEIYGRVGWFPANYVEEDYS | -0.207 ± 0.11 |
| KYFGTAKARYDFCARDRSELSLEEGDIIKILNKKGQQGWWRGEIYGRVGWFPANYVEEDYS | -0.613 ± 0.31 |
| KYFGTAKARYDFCARDRSELSLYEGDIIKILNKKGQQGWWRGEIYGRVGWFPANYVEEDYS | -0.232 ± 0.24 |
| KYFGTAKARYDFCARDRSELSLQEGDIIKILNKKGQQGWWRGEIYGRVGWFPANYVEEDYS | -0.221 ± 0.12 |
| KYFGTAKARYDFCARDRSELSLNEGDIIKILNKKGQQGWWRGEIYGRVGWFPANYVEEDYS | -0.576 ± 0.2 |
| KYFGTAKARYDFCARDRSELSLKEADIIKILNKKGQQGWWRGEIYGRVGWFPANYVEEDYS | -0.721 ± 0.18 |
